Two proteins from patent US20150099282A1, “NADP-DEPENDENT ALANINE DEHYDROGENASE” (EVONIK INDUSTRIES AG, priority 2012, published 2015) can be followed below.

Holding throughout (type): biochemical, Bacillus subtilis
Substrate in series [1]: NC(=O)C1=CN([C@@H]2O[C@H](COP(=O)(O)OP(=O)(O)OC[C@H]3O[C@@H](n4cnc5c(N)ncnc54)[C@H](O)[C@@H]3O)[C@@H](O)[C@H]2O)C=CC1
The series can be described thus: KM and kcat for NADH/NADPH, reductive amination of pyruvate, BasAlaDH mutant D196A/L197R. The conditions noted are these: other: reductive amination of pyruvate, 5 mM pyruvate, 200 mM ammonium acetate, 10-500 μM NADH, 0.5 μM enzyme, Hepes/NaOH pH 8.3, 30.0 °C. An excerpt:
(§1) The conserved aspartate residue was the starting point for constructing the BasAlaDH enzyme variants D196A/L197R, with the SheAlaDH structure being used as template. […] As a result of the substitution L197R, the new cosubstrate specificity is favoured further as the result of the formation of salt bridges between the introduced arginine residue and the NADPH phosphate group.
(§2) The gene of the Bacillus subtilis AlaDH (SEQ ID No. 4) was amplified from the plasmid pUC18-AlaDH by polymerase chain reaction (PCR) using the oligodeoxy nucleotides AlaDHfw (SEQ ID No. 11) and AlaDHrv (SEQ ID No. 12), cleaved at the 3′ end using the restriction enzyme KpnI and ligated with the expression vector pASK-IBA35(+) (IBA GmbH, Göttingen) which had been cleaved with the restriction enzymes EheI and KpnI. The resulting expression plasmid pASK-IBA35(+)-AlaDH on which the BasAlaDH with an N-terminal His6-tag is encoded was verified by means of analytical restriction digestion and DNA sequencing. The plasmid which codes for the enzyme variant D196A/L197R was generated by site-directed mutagenesis using the oligodeoxy nucleotides AlaDH_D196A/L197Rfw (SEQ ID No. 13) and AlaDH_D196A/L197Rrv (SEQ ID No. 14), using the QuikChange method. The resulting expression plasmid pASK-IBA35(+)-AlaDH(D196A/L197R) was verified by means of DNA sequencing.
(§3) The expression plasmids for the BasAlaDH and its variant D196A/L197R were subsequently used for transforming E. coli BL21 (Sambrook et al. (2001) Molecular cloning: a laboratory manual, 3rd edition. Cold Spring Harbor Laboratory Press). Gene expression was induced in each case in LB medium (Sambrook et al. 2001) supplemented with 100 μg/ml ampicillin (2 L culture volume in a 5-l shake flask) at 30° C. in the exponential growth phase at OD550=0.5 by addition of 0.2 μg/ml anhydrotetracyclin (aTc; Acros, Geel, Belgium). After an induction time of 3 hours, the culture was harvested, and the cells were taken up in 40 mM Hepes/NaOH pH 7.5, 0.5 M NaCl and disrupted mechanically in a French press homogenizer (G. Heinemann, Schwäbisch Gmünd). The clear supernatant was applied to a Chelating Sepharose™ Fast Flow column loaded with Zn^2+ (bed volume 2.8 ml; GE Healthcare, Munich), and the enzymes with His6-tag fusion were eluted using a linear imidazole/HCl concentration gradient of from 0 to 500 mM in 40 mM Hepes/NaOH pH 7.5, 0.5 M NaCl. The elution fractions were concentrated by ultrafiltration and purified chromatographically by means of gel filtration on Superdex200 (GE Healthcare) in the presence of 25 mM Hepes/NaOH pH 8.3.
(§4) The Michaelis constant (KM) and the turnover number (kcat) of the two purified enzymes for the cosubstrates NADH and NADPH were determined with the aid of reductive amination of pyruvate, and the catalytic efficiency (kcat/KM) was calculated (Table 1).

Substrate in series [2]: NC(=O)C1=CN([C@@H]2O[C@H](COP(=O)(O)OP(=O)(O)OC[C@H]3O[C@@H](n4cnc5c(N)ncnc54)[C@H](OP(=O)(O)O)[C@@H]3O)[C@@H](O)[C@H]2O)C=CC1
The description is as above. The conditions noted are these: other: reductive amination of pyruvate, 5 mM pyruvate, 200 mM ammonium acetate, 10-500 μM NADPH, 0.5 μM enzyme, Hepes/NaOH pH 8.3, 30.0 °C.
Text: as §1, §2, §3, §4

Substrate in series [3]: NC(=O)C1=CN([C@@H]2O[C@H](COP(=O)(O)OP(=O)(O)OC[C@H]3O[C@@H](n4cnc5c(N)ncnc54)[C@H](O)[C@@H]3O)[C@@H](O)[C@H]2O)C=CC1
The series can be described thus: KM and kcat for NADH/NADPH, reductive amination of pyruvate, wild type BasAlaDH. The following applies: other: reductive amination of pyruvate, 5 mM pyruvate, 200 mM ammonium acetate, 10-500 μM NADH, 0.5 μM enzyme, Hepes/NaOH pH 8.3, 30.0 °C.
Text: as §2, §3, §4

Substrate in series [4]: NC(=O)C1=CN([C@@H]2O[C@H](COP(=O)(O)OP(=O)(O)OC[C@H]3O[C@@H](n4cnc5c(N)ncnc54)[C@H](OP(=O)(O)O)[C@@H]3O)[C@@H](O)[C@H]2O)C=CC1
Described as above. The conditions noted are these: other: reductive amination of pyruvate, 5 mM pyruvate, 200 mM ammonium acetate, 10-500 μM NADPH, 0.5 μM enzyme, Hepes/NaOH pH 8.3, 30.0 °C.
Text: as §2, §3, §4

B1: Bacillus subtilis alanine dehydrogenase (BasAlaDH) variant D196A/L197R (Asp196Ala, Leu197Arg), SEQ ID No. 1 (with His-Tag: SEQ ID No. 22) (Bacillus subtilis … (protein)
chain: MASRGSHHHHHHGAIIGVPKEIKNNENRVALTPGGVSQLISNGHRVLVETGAGLGSGFENEAYESAGAEIIADPKQVWDAEMVMKVKEPLPEEYVYFRKGLVLFTYLHLAAEPELAQALKDKGVTAIAYETVSEGRTLPLLTPMSEVAGRMAAQIGAQFLEKPKGGKGILLAGVPGVSRGKVTIIGGGVVGTNAAKMAVGLGADVTIIARNADRLRQLDDIFGHQIKTLISNPVNIADAVAEADLLICAVLIPGAKAPTLVTEEMVKQMKPGSVIVDVAIDQGGIVETVDHITTHDQPTYEKHGVVHYAVANMPGAVPRTSTIALTNVTVPYALQIANKGAVKALADNTALRAGLNTANGHVTYEAVARDLGYEYVPAEKALQDESSVAGA
Consider B1, for which, in series [1], the Michaelis constant (Km) came to 887 ± 360 µM, the kcat came to 44.48 ± 12 s⁻¹ and the kcat/Km stood at 3.0 μM^−1/min^−1. In addition, in series [2], the Michaelis constant (Km) turned out to be 32 ± 3 µM, the kcat stood at 28.83 ± 0.65 s⁻¹ and the kcat/Km is 54.1 μM^−1/min^−1.

B2: Bacillus subtilis alanine dehydrogenase (BasAlaDH), wild type (N-terminal His6-tag) (Bacillus subtilis subsp. subtilis str. 168) (protein)
chain: MIIGVPKEIKNNENRVALTPGGVSQLISNGHRVLVETGAGLGSGFENEAYESAGAEIIADPKQVWDAEMVMKVKEPLPEEYVYFRKGLVLFTYLHLAAEPELAQALKDKGVTAIAYETVSEGRTLPLLTPMSEVAGRMAAQIGAQFLEKPKGGKGILLAGVPGVSRGKVTIIGGGVVGTNAAKMAVGLGADVTIIDLNADRLRQLDDIFGHQIKTLISNPVNIADAVAEADLLICAVLIPGAKAPTLVTEEMVKQMKPGSVIVDVAIDQGGIVETVDHITTHDQPTYEKHGVVHYAVANMPGAVPRTSTIALTNVTVPYALQIANKGAVKALADNTALRAGLNTANGHVTYEAVARDLGYEYVPAEKALQDESSVAGA
Take B2: in series [3], the Michaelis-Menten constant (Km) came to 14 ± 2 µM, the kcat worked out at 14 ± 0.35 s⁻¹ and the kcat/Km was found to be 59.9 μM^−1/min^−1. Further, in series [4], the Km is 448 ± 135 µM, the catalytic constant (kcat) was determined as 11.1 ± 1.9 s⁻¹ and the kcat/Km came to 1.5 μM^−1/min^−1.
